Consider 1 protein from paper PMC7271948, “A baculoviral system for the production of human β-glucocerebrosidase enables atomic resolution analysis” (Acta Crystallographica. Section D, Structural Biology, 2020).

Substrate in this data set: Cc1cc(=O)oc2cc(O[C@@H]3O[C@H](CO)[C@@H](O)[C@H](O)[C@H]3O)ccc12
The experiment in a line: purified protein.

B1: β-glucocerebrosidase (GBA) (Homo sapiens) (protein)
chain: ARPCIPKSFGYSSVVCVCNATYCDSFDPPTFPALGTFSRYESTRSGRRMELSMGPIQANHTGTGLLLTLQPEQKFQKVKGFGGAMTDAAALNILALSPPAQNLLLKSYFSEEGIGYNIIRVPMASCDFSIRTYTYADTPDDFQLHNFSLPEEDTKLKIPLIHRALQLAQRPVSLLASPWTSPTWLKTNGAVNGKGSLKGQPGDIYHQTWARYFVKFLDAYAEHKLQFWAVTAENEPSAGLLSGYPFQCLGFTPEHQRDFIARDLGPTLANSTHHNVRLLMLDDQRLLLPHWAKVVLTDPEAAKYVHGIAVHWYLDFLAPAKATLGETHRLFPNTMLFASEACVGSKFWEQSVRLGSWDRGMQYSHSIITNLLYHVVGWTDWNLALNPEGGPNWVRNFVDSPIIVDITKDTFYKQPMFYHLGHFSKFIPEGSQRVGLVASQKNDLDAVALMHPDGSAVVVVLNRSSKDVPLTIKDPAVGFLETISPGYSIHTYLWRRQ
With B1, the Michaelis-Menten constant (Km) (usually the concentration of substrate that gives half-maximal velocity) was 1288 ± 51 µM; the Vmax – broadly, the top rate of the reaction or transport when substrate is in excess – came out at 11.7 µM/min; the catalytic constant (kcat) (usually the maximal rate divided by the concentration of active sites) was determined as 19.6 s⁻¹.
